Measurements reported in the Immune Epitope Database (IEDB).

Experiments:
Test in all cases: IEDB peptide-MHC binding, purified MHC/competitive/radioactivity; filed as Kd, often an IC50 or EC50 that approximates it; ≥ and ≤ were set here for values at or beyond the usual limits of such assays
[1] = biological target: HLA-A*02:03
[2] = biological target: HLA-A*02:06
[3] = biological target: HLA-A*02:02
[4] = biological target: HLA-A*68:01
[5] = biological target: HLA-A*11:01
[6] = biological target: HLA-A*33:01
[7] = biological target: HLA-A*03:01
[8] = biological target: HLA-A*31:01
[9] = source organism: Vaccinia virus WR
[10] = source organism: SARS coronavirus Tor2
[11] = source organism: Vaccinia virus Copenhagen
[12] = source organism: Triticum aestivum

Row | Sequence | Kd [1, 9] [nM] | Kd [2, 9] [nM] | Kd [3, 9] [nM] | other results
1 | AMLKSKNINI | 223 | 200 | 1650 | –
2 | ATICLKNEGV | 70.9 | 42.5 | 436 | –
3 | AVIIMAINV | 2760 | 65.2 | 9070 | –
4 | DAEFVMCLEA | 7310 | 12700 | 2410 | –
5 | DIKYDNKLL | ≥ 49800 | ≥ 77100 | 1420 | –
6 | DLDKVYEIL | ≥ 26300 | ≥ 53700 | 19600 | –
7 | DVCKKNLDL | 8020 | 16300 | ≥ 25400 | –
8 | EIKAEMQLKI | 4760 | 14300 | 16900 | –
9 | ELKDLLNVT | 209 | ≥ 38400 | 1540 | –
10 | ELTNKKYRCM | ≥ 70400 | ≥ 69800 | ≥ 70000 | –
11 | ETMYLTMKA | 942 | 12700 | 7850 | –
12 | FAFIDFSKST | 2410 | 1410 | 11800 | –
13 | FASADNHPKM | ≥ 47400 | ≥ 69800 | ≥ 70000 | –
14 | FIISTLNKI | 0.418 | 5.84 | 1.65 | –
15 | FIQWTGGNI | 54.7 | 5910 | 683 | –
16 | FISPASISSV | 0.111 | 2.02 | 3.01 | –
17 | FISYNRHNDT | 4930 | 11300 | 6840 | –
18 | FLLFLVLIML | – | – | – | Kd [1, 10]: 1380 nM; Kd [2, 10]: 2920 nM; Kd [3, 10]: 1570 nM
19 | FTEGKINPLL | 595 | 85.8 | 150 | –
20 | FVDTMSIYIA | 2390 | 1100 | 154 | –
21 | GTSVIRSNI | 44.8 | 1610 | 386 | –
22 | HLMSDNPKA | 279 | 523 | 56.9 | –
23 | IIAVFDSKL | 107 | 98.6 | 44 | –
24 | IINSVSIIL | 2900 | ≥ 25900 | 705 | –
25 | IISSKQYPA | 612 | 1160 | 164 | –

Row | Sequence | Kd [1, 9] [nM] | Kd [2, 9] [nM] | Kd [3, 9] [nM] | other results
26 | ILDNLRCHSA | 69.3 | 297 | 972 | –
27 | ILSCIFAFI | – | – | – | Kd [1, 11]: 3.08 nM; Kd [2, 11]: 8.84 nM; Kd [3, 11]: 0.79 nM
28 | IVNTTYDFLA | 8270 | 956 | 1250 | –
29 | KASTISWMM | 556 | 797 | 429 | –
30 | KTIISEEYL | 1220 | 150 | 916 | –
31 | LANERYRSA | 554 | ≥ 77100 | ≥ 31300 | –
32 | LIANIFTPLV | – | – | – | Kd [1, 10]: 13.4 nM; Kd [2, 10]: 15.7 nM; Kd [3, 10]: 0.398 nM
33 | LITNTKSDNI | 3080 | 18700 | 2250 | –
34 | LLLENKSLTI | 985 | 1320 | 982 | –
35 | LLLEWLAEVV | – | – | – | Kd [1, 10]: 0.813 nM; Kd [2, 10]: 0.525 nM; Kd [3, 10]: 0.31 nM
36 | LMWFIISIV | – | – | – | Kd [1, 10]: 7.18 nM; Kd [2, 10]: 26.8 nM; Kd [3, 10]: 60.1 nM
37 | MICCDSRIVV | 392 | 51.9 | 665 | –
38 | MIYDLNAVTT | 477 | 429 | 897 | –
39 | NACDKHNKT | 9250 | 18600 | 17900 | –
40 | NTTYDFLARK | – | – | – | Kd [4, 9]: 9.58 nM; Kd [5, 9]: 31.8 nM; Kd [6, 9]: 4510 nM; Kd [7, 9]: 691 nM; Kd [8, 9]: 5550 nM
41 | NVSRVVECL | 938 | 1030 | 133 | –
42 | NVTYNIKPV | 153 | 855 | ≥ 22800 | –
43 | PISDYSAEV | 267 | 2800 | 716 | –
44 | PLIISTDQDT | ≥ 35600 | ≥ 47400 | ≥ 45000 | –
45 | PLPCQLMYAL | 8710 | 9810 | 163 | –
46 | PSTDVNKQNK | – | – | – | Kd [4, 9]: ≥ 26800 nM; Kd [5, 9]: 3610 nM; Kd [6, 9]: ≥ 70000 nM; Kd [7, 9]: 1260 nM; Kd [8, 9]: 4780 nM
47 | PTEMVDVSM | ≥ 41300 | ≥ 40200 | 10600 | –
48 | PTPKKMNIVT | ≥ 55700 | ≥ 69800 | ≥ 65800 | –
49 | QLEQPYVFIK | – | – | – | Kd [4, 10]: 17200 nM; Kd [5, 10]: 2990 nM; Kd [6, 10]: ≥ 70000 nM; Kd [7, 10]: 6680 nM; Kd [8, 10]: 11300 nM
50 | QQQQQQQQK | – | – | – | Kd [4, 12]: ≥ 31300 nM; Kd [5, 12]: 845 nM; Kd [6, 12]: ≥ 56400 nM; Kd [7, 12]: 2110 nM; Kd [8, 12]: 5380 nM
